According to patent publication US20180280496A1:
Several values for one entry are separate records, joined by “and”; a condition that tells them apart may be missing. Identical values can stand only once. Like-named read-outs stand apart in the source and are kept apart here.

Key:
A*11:01 (human), P04439 [1] = conditions: modification not given
A*11:01 (human), P04439 [2] = conditions: modification not given; remark: listed apart in the source
A*24:02 (human), P04439 [3] = conditions: modification not given
HLA-A*32:01 = conditions: chains peptide; modification not given
HLA-B*15:01 = conditions: chains peptide; modification not given
HLA-B*40:01 = conditions: chains peptide; modification not given
A*11:01 (human), P04439 [4] = conditions: modification not given; remark: listed apart in the source
A*03:01 (human), P04439 = conditions: modification not given
A*02:01 (human), P04439 [5] = test: ProImmune REVEAL MHC class I-peptide binding assay, A*02:01
A*02:01 (human), P04439 [6] = conditions: chains peptide; modification not given
A*24:02 (human), P04439 [7] = conditions: modification not given; remark: listed apart in the source
A*11:01 (human), P04439 [8] = conditions: modification not given; remark: listed apart in the source
A*02:01 (human), P04439 [9] = conditions: chains peptide; modification not given; remark: listed apart in the source
A*11:01 (human), P04439 [10] = conditions: modification not given; remark: listed apart in the source
A*24:02 (human), P04439 [11] = conditions: modification not given; remark: listed apart in the source
A*24:02 (human), P04439 [12] = conditions: modification not given; remark: listed apart in the source
B*27:05 (human), P01889 = test: ProImmune REVEAL MHC class I-peptide binding assay
H-2Kb (mouse), P01901 = biological target: T1, H-2Kb (mouse), P01901; test: ProImmune REVEAL MHC class I-peptide binding assay
T1 chain: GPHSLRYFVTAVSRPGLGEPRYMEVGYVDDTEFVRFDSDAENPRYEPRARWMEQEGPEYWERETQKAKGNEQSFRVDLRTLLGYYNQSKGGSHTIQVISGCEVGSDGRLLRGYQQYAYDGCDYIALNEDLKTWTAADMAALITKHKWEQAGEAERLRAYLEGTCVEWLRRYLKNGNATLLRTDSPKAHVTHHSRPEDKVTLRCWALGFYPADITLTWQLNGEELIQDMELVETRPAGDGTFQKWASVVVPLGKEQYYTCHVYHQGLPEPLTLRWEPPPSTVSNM

A*02:01 (human), P04439 [13] = test: ProImmune REVEAL MHC class I-peptide binding assay
A*24:02 (human), P04439 [14] = test: ProImmune REVEAL MHC class I-peptide binding assay
A*11:01 (human), P04439 [15] = test: ProImmune REVEAL MHC class I-peptide binding assay
B*07:02 (human), P01889 = test: ProImmune REVEAL MHC class I-peptide binding assay

Q: For VTFKNPHAK [SEQ ID NO: 309 serotype 2], which IC50 (A*11:01 (human), P04439 [1]) is on record?
A: The IC50 was 17 nM.

Q: Which IC50 (A*11:01 (human), P04439 [2]) does the source give for VTFKVPHAK [SEQ ID NO: 309 serotype 4] here?
A: Its IC50 is 14 nM.

Q: How did the IC50 (A*24:02 (human), P04439 [3]) turn out when SYAMCLNTF [SEQ ID NO: 308 serotype 3] was run?
A: Its IC50 is 540 nM.

Q: RQWFFDLPL [SEQ ID NO: 310 serotype 3] was tested. Which IC50 (HLA-A*32:01) did it give?
A: The IC50 was 7 nM.

Q: What about the IC50 (HLA-B*15:01) of the same binder?
A: Its IC50 is 80 nM.

Q: And the IC50 (HLA-B*40:01)?
A: Its IC50 is 51 nM.

Q: ALTLHWFRK [SEQ ID NO: 311 serotype 4] was tested. Which IC50 (A*11:01 (human), P04439 [4]) did it give?
A: The IC50 was 47 nM.

Q: And the IC50 (A*03:01 (human), P04439)?
A: The IC50 was 34 nM.

Q: For KQWFLDLPL, which REVEAL Score (A*02:01 (human), P04439 [5]) is on record?
A: Its REVEAL Score is 86.

Q: What about the IC50 (A*02:01 (human), P04439 [6]) of the same binder?
A: Its IC50 is 11 nM.

Q: How did the IC50 (A*24:02 (human), P04439 [7]) turn out when SYSMCTGKF [SEQ ID NO: 308 serotype 2] was run?
A: Its IC50 is 115 nM.

Q: Which IC50 (A*11:01 (human), P04439 [8]) does the source give for VTFKTAHAK [SEQ ID NO: 309 serotype 1] here?
A: Its IC50 is 16 nM.

Q: How did the REVEAL Score (A*02:01 (human), P04439 [5]) turn out when RQWFFDLPL was run?
A: Its REVEAL Score is 80.5.

Q: And the IC50 (A*02:01 (human), P04439 [9])?
A: The IC50 was 12 nM and 39 nM.

Q: How did the IC50 (A*11:01 (human), P04439 [10]) turn out when VTFKNAHAK [SEQ ID NO: 309 serotype 3] was run?
A: The IC50 was 17 nM.

Q: How did the IC50 (A*24:02 (human), P04439 [11]) turn out when SYVMCTGSF [SEQ ID NO: 308 serotype 1] was run?
A: Its IC50 is 104 nM.

Q: How did the IC50 (A*24:02 (human), P04439 [12]) turn out when SYTMCSGKF [SEQ ID NO: 308 serotype 4] was run?
A: The IC50 was 222 nM.

Q: For LMCHATFTM (modifications not checked), which REVEAL score at 0 h (B*27:05 (human), P01889) is on record?
A: The REVEAL score at 0 h was 98.2.

Q: What about the REVEAL score at 0 h (H-2Kb (mouse), P01901) of the same binder?
A: Its REVEAL score at 0 h is 59.

Q: What about the REVEAL score at 0 h (A*02:01 (human), P04439 [13]) of the same binder?
A: Its REVEAL score at 0 h is 72.9.

Q: What about the REVEAL score at 0 h (A*24:02 (human), P04439 [14]) of the same binder?
A: Its REVEAL score at 0 h is 99.5.

Q: With MGEAAAIFM (modifications not checked) as the binder, how does the REVEAL score at 0 h (A*02:01 (human), P04439 [13]) read?
A: The REVEAL score at 0 h was 50.6.

Q: What does the source list for GEAAAIFMT (modifications not checked)?
A: REVEAL score at 0 h (A*02:01 (human), P04439 [13]): 74.3; REVEAL score at 0 h (A*24:02 (human), P04439 [14]): 58.9; REVEAL score at 0 h (A*11:01 (human), P04439 [15]): 50.3

Q: Which REVEAL score at 0 h (B*07:02 (human), P01889) does the source give for LMRRGDLPV (modifications not checked) here?
A: The REVEAL score at 0 h was 179.

Q: And the REVEAL score at 0 h (A*02:01 (human), P04439 [13])?
A: The REVEAL score at 0 h was 82.3.

Q: For KLTYQNKVV (modifications not checked), which REVEAL score at 0 h (A*02:01 (human), P04439 [13]) is on record?
A: Its REVEAL score at 0 h is 92.3.

Q: Which REVEAL score at 0 h (A*02:01 (human), P04439 [13]) does the source give for AISGDDCVV (modifications not checked) here?
A: Its REVEAL score at 0 h is 91.1.

Q: Which results are given for LMYFHRRDL (modifications not checked)?
A: REVEAL score at 0 h (B*07:02 (human), P01889): 120; REVEAL score at 0 h (H-2Kb (mouse), P01901): 54.9; REVEAL score at 0 h (A*02:01 (human), P04439 [13]): 97.8

Q: With MWHVTRGAV (modifications not checked) as the binder, how does the REVEAL score at 0 h (A*02:01 (human), P04439 [13]) read?
A: The REVEAL score at 0 h was 62.7.

Q: How did the REVEAL score at 0 h (H-2Kb (mouse), P01901) turn out when ATFTMRLLS (modifications not checked) was run?
A: Its REVEAL score at 0 h is 55.6.

Q: What about the REVEAL score at 0 h (A*11:01 (human), P04439 [15]) of the same binder?
A: Its REVEAL score at 0 h is 58.5.

Q: Which REVEAL score at 0 h (A*11:01 (human), P04439 [15]) does the source give for TVWFVPSIK (modifications not checked) here?
A: Its REVEAL score at 0 h is 92.2.

Q: Which REVEAL score at 0 h (A*02:01 (human), P04439 [13]) does the source give for GLYGNGVVT (modifications not checked) here?
A: Its REVEAL score at 0 h is 87.7.

Q: Which REVEAL score at 0 h (A*11:01 (human), P04439 [15]) does the source give for GTYGLNTFT (modifications not checked) here?
A: Its REVEAL score at 0 h is 63.6.

Q: With ISGDDCVVK (modifications not checked) as the binder, how does the REVEAL score at 0 h (A*11:01 (human), P04439 [15]) read?
A: The REVEAL score at 0 h was 88.7.

Q: Which results are given for CHATFTMRL (modifications not checked)?
A: REVEAL score at 0 h (H-2Kb (mouse), P01901): 60.3; REVEAL score at 0 h (A*24:02 (human), P04439 [14]): 75.9

Q: HWTEAKMLL (modifications not checked) was tested. Which REVEAL score at 0 h (A*24:02 (human), P04439 [14]) did it give?
A: The REVEAL score at 0 h was 103.

Q: WTEAKMLLD (modifications not checked) was tested. Which REVEAL score at 0 h (A*24:02 (human), P04439 [14]) did it give?
A: Its REVEAL score at 0 h is 94.7.

Q: With VGTYGLNTF (modifications not checked) as the binder, how does the REVEAL score at 0 h (A*24:02 (human), P04439 [14]) read?
A: Its REVEAL score at 0 h is 96.

Q: Which REVEAL score at 0 h (A*24:02 (human), P04439 [14]) does the source give for YFHRRDLRL (modifications not checked) here?
A: Its REVEAL score at 0 h is 87.5.

Q: What does the source list for FKPGTSGSP (modifications not checked)?
A: REVEAL score at 0 h (B*07:02 (human), P01889): 50.4; REVEAL score at 0 h (H-2Kb (mouse), P01901): 45.7

Q: Which REVEAL score at 0 h (B*07:02 (human), P01889) does the source give for IPERSWNSG (modifications not checked) here?
A: The REVEAL score at 0 h was 45.2.

Q: For PERVILAGP (modifications not checked), which REVEAL score at 0 h (B*07:02 (human), P01889) is on record?
A: The REVEAL score at 0 h was 56.1.

Q: With PLSRNSTHE (modifications not checked) as the binder, how does the REVEAL score at 0 h (B*07:02 (human), P01889) read?
A: Its REVEAL score at 0 h is 65.

Q: How did the REVEAL score at 0 h (B*07:02 (human), P01889) turn out when LSRNSTHEM (modifications not checked) was run?
A: The REVEAL score at 0 h was 124.

Q: And the REVEAL score at 0 h (H-2Kb (mouse), P01901)?
A: The REVEAL score at 0 h was 51.1.

Q: SRNSTHEMY (modifications not checked) was tested. Which REVEAL score at 0 h (B*07:02 (human), P01889) did it give?
A: The REVEAL score at 0 h was 52.

Q: For ARGYISTRV (modifications not checked), which REVEAL score at 0 h (B*27:05 (human), P01889) is on record?
A: The REVEAL score at 0 h was 125.

Q: RRGDLPVWL (modifications not checked) was tested. Which REVEAL score at 0 h (B*27:05 (human), P01889) did it give?
A: The REVEAL score at 0 h was 145.

Q: For FKLTYQNKV (modifications not checked), which REVEAL score at 0 h (B*27:05 (human), P01889) is on record?
A: Its REVEAL score at 0 h is 53.7.

Q: With LAPTRVVAA (modifications not checked) as the binder, how does the REVEAL score at 0 h (H-2Kb (mouse), P01901) read?
A: The REVEAL score at 0 h was 102.

Q: For HATFTMRLL (modifications not checked), which REVEAL score at 0 h (H-2Kb (mouse), P01901) is on record?
A: The REVEAL score at 0 h was 69.5.

Q: Which REVEAL score at 0 h (A*02:01 (human), P04439 [13]) does the source give for VVAAEMEEA (modifications not checked) here?
A: The REVEAL score at 0 h was 92.2.

Q: QQRVFKEKV (modifications not checked) was tested. Which REVEAL score at 0 h (H-2Kb (mouse), P01901) did it give?
A: Its REVEAL score at 0 h is 63.4.

Q: Which REVEAL score at 0 h (H-2Kb (mouse), P01901) does the source give for YGLNTFTNM (modifications not checked) here?
A: The REVEAL score at 0 h was 75.4.

Q: With TALTGATEI (modifications not checked) as the binder, how does the REVEAL Score (A*02:01 (human), P04439 [5]) read?
A: Its REVEAL Score is 0.9.

Q: For IVDLMCHAT (modifications not checked), which REVEAL score at 0 h (A*02:01 (human), P04439 [13]) is on record?
A: Its REVEAL score at 0 h is 62.7.
